Measured values: patent US20160290999A1 (SYSMEX, published 2016)
No end group written: not given here.

What was measured:
Human serum albumin [1] = biological target: T1, Human serum albumin (human, UniProt P02768 25-609); test: Kd as classified from the fluorescence titration; told in Example 4 of the peptides of samples F and G
T1 construct: Purchased protein used in solution; In the hydrothermal experiments it is heat-aggregated into an insoluble precipitate; also called HSA

Human serum albumin [2] = biological target: T1, Human serum albumin; test: fluorescence titration of TMR-labelled peptide against HSA, Hill fit (as in Example 1)
Method: (§1) Each of the resulting mixtures was subjected to measurement with a spectrophotofluorometer [product name: F-7000, manufactured by Hitachi High-Technologies Corporation] and the fluorescence intensity with an excitation wavelength of 540 nm and a fluorescence wavelength of 580 nm (hereinafter, referred to as “fluorescence intensity A”) was measured.

Human serum albumin [3] = biological target: T1, Human serum albumin; test: fluorescence titration of TMR-labelled peptide against HSA, Hill fit (Example 2, FIG. 6)
Method: as §1

B1: TMR-labeled HSA 599-609 fragment (peptide)
peptide: LVAASQAALGL
modifications: also: TMR label, site not given here
Binder B1 has a Kd (Human serum albumin [1]) of no less than 500 µM.

B2: TMR-labeled ACTH (1-39) (peptide)
peptide: SYSMEHFRWGKPVGKKRRPVKVYPNAGENESAEAFPLEF
modifications: also: TMR label, site not given here
notes: The free text was followed; also called Adrenocorticotropic hormone (ACTH) (1-39)
In the case of B2, the Kd (Human serum albumin [2]) is reported as 520 µM.

B3: TMR-labeled SA21 (peptide)
peptide: DDEWLCGWRPLCIDEILR
modifications: cysteine pairing not given here; also: TMR label, site not given here
notes: The free text was followed; also called TMR-SA21; TMR-labeled SA1
Binder B3 has a Kd (Human serum albumin [3]) of less than 500 µM.
